In one data set the target is T1, His6-ObaG (Pseudomonas fluorescens, UniProt A0A1X9LWZ7).
T1 construct: gene obiH
T1 sequence (A0A1X9LWZ7 1-440): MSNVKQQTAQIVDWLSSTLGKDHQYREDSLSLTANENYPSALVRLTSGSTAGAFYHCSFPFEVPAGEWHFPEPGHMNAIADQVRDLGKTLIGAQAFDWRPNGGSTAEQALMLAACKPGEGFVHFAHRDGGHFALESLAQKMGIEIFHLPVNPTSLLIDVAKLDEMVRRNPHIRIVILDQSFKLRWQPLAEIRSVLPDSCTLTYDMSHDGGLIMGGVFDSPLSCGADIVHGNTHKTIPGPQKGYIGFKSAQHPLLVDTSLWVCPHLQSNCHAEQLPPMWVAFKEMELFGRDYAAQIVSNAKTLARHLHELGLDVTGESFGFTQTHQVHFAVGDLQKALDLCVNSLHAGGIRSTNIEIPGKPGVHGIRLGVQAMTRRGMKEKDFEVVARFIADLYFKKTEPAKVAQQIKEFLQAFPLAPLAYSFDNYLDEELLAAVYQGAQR
Nature of the data set: UV/Vis absorption spectra; NaBH4 reduction of internal aldimine. Type of data set: binding. The conditions noted are these: covalent (internal aldimine); pH 7.8; excess PLP removed.

Substrate in data set [1]: C[C@@H](O)[C@H](N)C(=O)O
As to the kind of experiment: discontinuous HPLC L-TTA assay, Michaelis-Menten fit. It is filed as biochemical, Pseudomonas fluorescens. As to conditions: co-substrate 4-nitrophenylacetaldehyde (10 mM in standard assay), L-threonine 1–200 mM, 25 μM enzyme, pH 7.8, 27 °C, PLP 0.4 mM, MgCl2 15 mM, NaCl 300 mM.

This note sets out measurements from PMC5490192, “An L-threonine transaldolase is required for L-threo-β-hydroxy-α-amino acid assembly during obafluorin biosynthesis” (Nature Communications, 2017).

Turning to `Cc1ncc(COP(=O)(O)O)c(C=O)c1O` [pyridoxal-5′-phosphate], the “UV/Vis absorption spectra; NaBH4 reduction of internal aldimine” value on His6-ObaG is recorded as “these results strongly support ObaG being a PLP-dependent enzyme”.

B1: His6-ObaG (Pseudomonas fluorescens) (protein)
chain: MSNVKQQTAQIVDWLSSTLGKDHQYREDSLSLTANENYPSALVRLTSGSTAGAFYHCSFPFEVPAGEWHFPEPGHMNAIADQVRDLGKTLIGAQAFDWRPNGGSTAEQALMLAACKPGEGFVHFAHRDGGHFALESLAQKMGIEIFHLPVNPTSLLIDVAKLDEMVRRNPHIRIVILDQSFKLRWQPLAEIRSVLPDSCTLTYDMSHDGGLIMGGVFDSPLSCGADIVHGNTHKTIPGPQKGYIGFKSAQHPLLVDTSLWVCPHLQSNCHAEQLPPMWVAFKEMELFGRDYAAQIVSNAKTLARHLHELGLDVTGESFGFTQTHQVHFAVGDLQKALDLCVNSLHAGGIRSTNIEIPGKPGVHGIRLGVQAMTRRGMKEKDFEVVARFIADLYFKKTEPAKVAQQIKEFLQAFPLAPLAYSFDNYLDEELLAAVYQGAQR
In general, Km refers to the substrate concentration at which the rate is half of its maximum. By kcat is commonly meant the number of substrate molecules converted per active site and unit of time at saturation. As for B1, in data set [1], the Km turned out to be 40.2 ± 3.8 mM and the kcat worked out at 1.05 ± 0.0317 s⁻¹.
